# Test system: Escherichia coli TOP10
# Assay: shrunken log2 fold change of peptide-encoding DNA abundance (4.5 h post-induction vs induction); higher = less antimicrobial activity (less host growth inhibition)
# Conditions: time post-induction: 4.5 h; library: site-saturation at positions 5, 18, 19, 20
# 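Further: peptides expressed intracellularly from a pBAD plasmid library in pooled LB shake-flask culture, induced with 0.3% L-arabinose, DNA abundance read by NGS, three biological replicates, DESeq2 with apeglm shrinkage.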
row,Sequence,shrunken log2 fold change
1,RRIRFRPPRLPRPRPRPRSYPRP,-0.268
2,RRIRMRPPRLPRPRPRPWAFPRP,-0.121
3,RRIRCRPPRLPRPRPRPMATPRP,0.0993
4,RRIRERPPRLPRPRPRPCLRPRP,0.0836
5,RRIRTRPPRLPRPRPRPPDRPRP,0.257
6,RRIRDRPPRLPRPRPRPSWQPRP,0.321
7,RRIRRRPPRLPRPRPRPRISPRP,0.482
8,RRIRLRPPRLPRPRPRPWHPPRP,-0.0174
9,RRIRLRPPRLPRPRPRPNWYPRP,-0.771
10,RRIRPRPPRLPRPRPRPPYEPRP,-0.145
11,RRIRLRPPRLPRPRPRPMPSPRP,-0.0353
12,RRIRRRPPRLPRPRPRPMPSPRP,0.136
13,RRIRKRPPRLPRPRPRPHFTPRP,-0.0881
14,RRIRARPPRLPRPRPRPAMWPRP,0.317
15,RRIRRRPPRLPRPRPRPTVRPRP,-0.00514
16,RRIRARPPRLPRPRPRPDRLPRP,-0.0424
17,RRIRTRPPRLPRPRPRPKTHPRP,0.29
18,RRIRPRPPRLPRPRPRPMHGPRP,0.0373
19,RRIRWRPPRLPRPRPRPPMCPRP,0.252
20,RRIRTRPPRLPRPRPRPSDGPRP,0.0381
21,RRIRIRPPRLPRPRPRPRKIPRP,-0.413
22,RRIRNRPPRLPRPRPRPLNNPRP,-0.478
23,RRIRYRPPRLPRPRPRPVMCPRP,-0.266
24,RRIRTRPPRLPRPRPRPFMAPRP,-0.0759
25,RRIRPRPPRLPRPRPRPSMAPRP,-0.0637

row,Sequence,shrunken log2 fold change
1,RRIRNRPPRLPRPRPRPHYAPRP,-0.0337
2,RRIRMRPPRLPRPRPRPAALPRP,0.292
3,RRIRQRPPRLPRPRPRPREAPRP,0.384
4,RRIRDRPPRLPRPRPRPTQNPRP,0.789
5,RRIRMRPPRLPRPRPRPSHGPRP,0.385
6,RRIRTRPPRLPRPRPRPWICPRP,0.0207
7,RRIRARPPRLPRPRPRPCAEPRP,0.977
8,RRIRFRPPRLPRPRPRPTIHPRP,0.865
9,RRIRKRPPRLPRPRPRPMSRPRP,0.0843
10,RRIRTRPPRLPRPRPRPPLPPRP,0.33
11,RRIRRRPPRLPRPRPRPAKFPRP,0.217
12,RRIRMRPPRLPRPRPRPNMFPRP,0.0213
13,RRIRLRPPRLPRPRPRPLGCPRP,0.0856
14,RRIRLRPPRLPRPRPRPSWRPRP,0.276
15,RRIRIRPPRLPRPRPRPNLIPRP,-0.654
16,RRIRKRPPRLPRPRPRPYFQPRP,-0.265
17,RRIRDRPPRLPRPRPRPPIEPRP,-0.0618
18,RRIRCRPPRLPRPRPRPRHGPRP,0.116
19,RRIRPRPPRLPRPRPRPECDPRP,0.392
20,RRIRSRPPRLPRPRPRPYCDPRP,-0.225
21,RRIRDRPPRLPRPRPRPIYAPRP,-0.288
22,RRIRKRPPRLPRPRPRPSFQPRP,0.0564
23,RRIRPRPPRLPRPRPRPTGRPRP,0.459
24,RRIRPRPPRLPRPRPRPHKHPRP,-0.268
25,RRIRDRPPRLPRPRPRPPKHPRP,0.0331

row,Sequence,shrunken log2 fold change
1,RRIRDRPPRLPRPRPRPSKLPRP,-0.317
2,RRIRKRPPRLPRPRPRPNSAPRP,0.393
3,RRIRWRPPRLPRPRPRPCSQPRP,0.0161
4,RRIRARPPRLPRPRPRPGKMPRP,-0.0572
5,RRIRSRPPRLPRPRPRPLGEPRP,0.175
6,RRIRERPPRLPRPRPRPMIRPRP,0.0011
7,RRIRSRPPRLPRPRPRPGIAPRP,0.409
8,RRIRPRPPRLPRPRPRPGQKPRP,-0.00227
9,RRIRERPPRLPRPRPRPVHKPRP,-0.581
10,RRIRSRPPRLPRPRPRPIMWPRP,-0.109
11,RRIRYRPPRLPRPRPRPMTMPRP,-0.615
12,RRIRGRPPRLPRPRPRPTKIPRP,0.462
13,RRIRNRPPRLPRPRPRPANAPRP,0.259
14,RRIRLRPPRLPRPRPRPWLFPRP,0.193
15,RRIRWRPPRLPRPRPRPQKPPRP,0.0546
16,RRIRDRPPRLPRPRPRPKFSPRP,-0.023
17,RRIRPRPPRLPRPRPRPMPYPRP,-0.41
18,RRIRIRPPRLPRPRPRPWGKPRP,-0.814
19,RRIRDRPPRLPRPRPRPYFAPRP,-0.413
20,RRIRGRPPRLPRPRPRPPQLPRP,0.824
21,RRIRHRPPRLPRPRPRPPGRPRP,0.593
22,RRIRNRPPRLPRPRPRPIMHPRP,0.00105
23,RRIRERPPRLPRPRPRPMAHPRP,-0.0343
24,RRIRFRPPRLPRPRPRPMGSPRP,-0.22
25,RRIRQRPPRLPRPRPRPFMFPRP,-0.144

row,Sequence,shrunken log2 fold change
1,RRIRFRPPRLPRPRPRPFFPPRP,0.386
2,RRIRPRPPRLPRPRPRPMFIPRP,-0.439
3,RRIRRRPPRLPRPRPRPYKRPRP,-0.238
4,RRIRERPPRLPRPRPRPQKCPRP,-0.202
5,RRIRMRPPRLPRPRPRPKMSPRP,0.123
6,RRIRLRPPRLPRPRPRPCRWPRP,0.252
7,RRIRQRPPRLPRPRPRPTKGPRP,-0.0785
8,RRIRIRPPRLPRPRPRPPRVPRP,0.278
9,RRIRLRPPRLPRPRPRPMPRPRP,0.291
10,RRIRDRPPRLPRPRPRPTLFPRP,0.533
11,RRIRMRPPRLPRPRPRPGYIPRP,-0.0175
12,RRIRDRPPRLPRPRPRPLNHPRP,-0.154
13,RRIRRRPPRLPRPRPRPYCVPRP,-0.462
14,RRIRTRPPRLPRPRPRPDRHPRP,-0.143
15,RRIRWRPPRLPRPRPRPWYEPRP,0.0012
16,RRIRWRPPRLPRPRPRPYLIPRP,-0.38
17,RRIRFRPPRLPRPRPRPPDVPRP,0.0274
18,RRIRLRPPRLPRPRPRPGINPRP,-0.354
19,RRIRIRPPRLPRPRPRPVSYPRP,-0.599
20,RRIRCRPPRLPRPRPRPCLNPRP,-0.589
21,RRIRDRPPRLPRPRPRPFHHPRP,-0.886
22,RRIRLRPPRLPRPRPRPHQAPRP,-0.216
23,RRIRLRPPRLPRPRPRPCMVPRP,-0.365
24,RRIRMRPPRLPRPRPRPQRQPRP,0.0595
25,RRIRPRPPRLPRPRPRPIMRPRP,-0.0819

row,Sequence,shrunken log2 fold change
1,RRIRFRPPRLPRPRPRPKPCPRP,0.3
2,RRIRTRPPRLPRPRPRPRHQPRP,-0.154
3,RRIRRRPPRLPRPRPRPAPEPRP,2.07
4,RRIRQRPPRLPRPRPRPTNGPRP,-0.0973
5,RRIRLRPPRLPRPRPRPKECPRP,-0.0179
6,RRIRSRPPRLPRPRPRPPGSPRP,0.134
7,RRIRERPPRLPRPRPRPDVHPRP,-0.435
8,RRIRWRPPRLPRPRPRPHMLPRP,-0.954
9,RRIRKRPPRLPRPRPRPTGCPRP,0.0439
10,RRIRTRPPRLPRPRPRPNRPPRP,0.00512
11,RRIRWRPPRLPRPRPRPACLPRP,0.521
12,RRIRQRPPRLPRPRPRPQQNPRP,-0.0678
13,RRIRKRPPRLPRPRPRPRGGPRP,0.848
14,RRIRIRPPRLPRPRPRPPWAPRP,0.388
15,RRIRTRPPRLPRPRPRPKMNPRP,-0.558
16,RRIRVRPPRLPRPRPRPQTHPRP,0.01
17,RRIRHRPPRLPRPRPRPQQWPRP,-0.178
18,RRIRMRPPRLPRPRPRPPFWPRP,1.2
19,RRIRWRPPRLPRPRPRPVRTPRP,0.955
20,RRIRDRPPRLPRPRPRPHRGPRP,-0.0201
21,RRIRMRPPRLPRPRPRPNNVPRP,-0.0591
22,RRIRARPPRLPRPRPRPTMFPRP,0.121
23,RRIRYRPPRLPRPRPRPFWIPRP,-0.0013
24,RRIRSRPPRLPRPRPRPGNYPRP,-0.0556
25,RRIRVRPPRLPRPRPRPALNPRP,-0.142

row,Sequence,shrunken log2 fold change
1,RRIRDRPPRLPRPRPRPIFGPRP,0.0916
2,RRIRHRPPRLPRPRPRPFLWPRP,-0.353
3,RRIRFRPPRLPRPRPRPNAWPRP,-0.171
4,RRIRCRPPRLPRPRPRPDNEPRP,-0.229
5,RRIRDRPPRLPRPRPRPYRKPRP,-0.0111
6,RRIRMRPPRLPRPRPRPSSIPRP,-0.0701
7,RRIRHRPPRLPRPRPRPTGVPRP,0.18
8,RRIRMRPPRLPRPRPRPETYPRP,0.451
9,RRIRMRPPRLPRPRPRPPHVPRP,0.865
10,RRIRRRPPRLPRPRPRPSVWPRP,0.703
11,RRIRKRPPRLPRPRPRPPWSPRP,0.154
12,RRIRLRPPRLPRPRPRPAGWPRP,0.712
13,RRIRVRPPRLPRPRPRPWYIPRP,-0.0193
14,RRIRNRPPRLPRPRPRPKWYPRP,-0.517
15,RRIRCRPPRLPRPRPRPVHNPRP,-0.415
16,RRIRVRPPRLPRPRPRPGKRPRP,-0.00991
17,RRIRIRPPRLPRPRPRPFPKPRP,-0.101
18,RRIRRRPPRLPRPRPRPFFSPRP,0.043
19,RRIRWRPPRLPRPRPRPESDPRP,0.59
20,RRIRRRPPRLPRPRPRPNAMPRP,0.258
21,RRIRKRPPRLPRPRPRPMSLPRP,0.474
22,RRIRHRPPRLPRPRPRPGMLPRP,-0.0926
23,RRIRTRPPRLPRPRPRPCVEPRP,-0.0492
24,RRIRKRPPRLPRPRPRPWIDPRP,-0.00174
25,RRIRDRPPRLPRPRPRPADNPRP,-0.0897

# From the supplement of paper PMC9112550, “Optimization of the antimicrobial peptide Bac7 by deep mutational scanning” (BMC Biology, 2022)
